The results in this text go back to the supplement of paper PMC7125110.

The labels stand for the following.
B1: glmS ribozyme (parent)
chain: AUAAAAGCGCCAGAACUACAGAAAUGUAGUUGACGAGGAGGAGGUUUAUCGAAUUUUCGGCGGAUGCCUCCAAA

What all share (details): with glucosamine-6-phosphate
In data set [1] the parent is B1. The experiment in a line: self-cleavage kobs at 40 uM GlcN6P; higher = faster cleavage; RNA array. Summed up:
(§1)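 E. coli RNA polymerase transcribed barcoded ribozyme variants in situ on sequenced MiSeq chips, which were tracked via a hybridised Cy3 probe at 37 °C. Tiles were imaged over ~14 h after glucosamine-6-phosphate (40 μM to 10 mM) in HEPES/KCl/Mg(OAc)2 buffer was flowed in. Normalised per-tile medians were fit to one- or two-exponential decays for kobs, and kcat and KM came from weighted Michaelis–Menten fits.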

Variants of B1 are the subject of data set [2]. Put plainly: self-cleavage kobs at 160 uM GlcN6P; higher = faster cleavage; RNA array. In a few lines:
as §1

In data set [3] the parent is B1. Put plainly: self-cleavage kobs at 640 uM GlcN6P; higher = faster cleavage; RNA array. In a few lines: as §1
In data set [4] the parent is B1. The experiment in a line: self-cleavage kobs at 2500 uM GlcN6P; higher = faster cleavage; RNA array. In a few lines: as §1
In data set [5] the parent is B1. The experiment in a line: self-cleavage kobs at 10000 uM GlcN6P; higher = faster cleavage; RNA array. In a few lines:
as §1

± gives the standard error. Variants at the floor of the assay were thinned out. Some results are limits rather than exact numbers.

Regarding U31A A36U, the “self-cleavage kobs at 40 uM GlcN6P” value in data set [1] is under 1e-05 s⁻¹. The “self-cleavage kobs at 160 uM GlcN6P” value in data set [2] was under 1e-05 s⁻¹. Further, the “self-cleavage kobs at 640 uM GlcN6P” value in data set [3] is under 1e-05 s⁻¹. Further, the “self-cleavage kobs at 2500 uM GlcN6P” value in data set [4] is under 1e-05 s⁻¹. In data set [5], the “self-cleavage kobs at 10000 uM GlcN6P” value was under 1e-05 s⁻¹.
For G13A A14U U31C, the “self-cleavage kobs at 40 uM GlcN6P” value in data set [1] was 7.34e-05 ± 1.8e-05 s⁻¹.
Take C16A A39U G51U: the “self-cleavage kobs at 40 uM GlcN6P” value in data set [1] was under 1e-05 s⁻¹.
Same read-out and setting: to A14U A15C A33C C70G belongs under 1e-05 s⁻¹.
Turning to G43A G63U, the “self-cleavage kobs at 40 uM GlcN6P” value in data set [1] was under 1e-05 s⁻¹. Further, the “self-cleavage kobs at 160 uM GlcN6P” value in data set [2] was under 1e-05 s⁻¹. Further, in data set [3], the “self-cleavage kobs at 640 uM GlcN6P” value is under 1e-05 s⁻¹.
Turning to G29C U65G C67U, in data set [1], the “self-cleavage kobs at 40 uM GlcN6P” value was under 1e-05 s⁻¹. In addition, in data set [5], the “self-cleavage kobs at 10000 uM GlcN6P” value was 0.000105 ± 3e-05 s⁻¹.
As for U46G C58U, the “self-cleavage kobs at 40 uM GlcN6P” value in data set [1] was under 1e-05 s⁻¹.
Take A33G G51U: the “self-cleavage kobs at 40 uM GlcN6P” value in data set [1] was under 1e-05 s⁻¹. In addition, the “self-cleavage kobs at 640 uM GlcN6P” value in data set [3] is under 1e-05 s⁻¹. Besides, the “self-cleavage kobs at 10000 uM GlcN6P” value in data set [5] was under 1e-05 s⁻¹.
In the case of A36C A64C, the “self-cleavage kobs at 40 uM GlcN6P” value in data set [1] is under 1e-05 s⁻¹. Also, the “self-cleavage kobs at 640 uM GlcN6P” value in data set [3] is under 1e-05 s⁻¹. Besides, the “self-cleavage kobs at 2500 uM GlcN6P” value in data set [4] was under 1e-05 s⁻¹. Further, the “self-cleavage kobs at 10000 uM GlcN6P” value in data set [5] is under 1e-05 s⁻¹.
Consider C8G G38U G60U, for which the “self-cleavage kobs at 40 uM GlcN6P” value in data set [1] is under 1e-05 s⁻¹.
Consider A33G A64U, for which, in data set [1], the “self-cleavage kobs at 40 uM GlcN6P” value is under 1e-05 s⁻¹. For the same variant, the “self-cleavage kobs at 10000 uM GlcN6P” value in data set [5] is under 1e-05 s⁻¹.
Consider U30G G43A, for which the “self-cleavage kobs at 40 uM GlcN6P” value in data set [1] was under 1e-05 s⁻¹. In addition, the “self-cleavage kobs at 160 uM GlcN6P” value in data set [2] is under 1e-05 s⁻¹.
Turning to A42G A48U G62U C71U, the “self-cleavage kobs at 40 uM GlcN6P” value in data set [1] is under 1e-05 s⁻¹. Also, the “self-cleavage kobs at 640 uM GlcN6P” value in data set [3] is under 1e-05 s⁻¹. Besides, in data set [4], the “self-cleavage kobs at 2500 uM GlcN6P” value was under 1e-05 s⁻¹. The “self-cleavage kobs at 10000 uM GlcN6P” value in data set [5] is under 1e-05 s⁻¹.
A15U A36U G60A: the “self-cleavage kobs at 40 uM GlcN6P” value in data set [1] is under 1e-05 s⁻¹.
Same read-out and setting: in the case of A39C G40C U47C it was under 1e-05 s⁻¹.
As to G35U G60U, the “self-cleavage kobs at 40 uM GlcN6P” value in data set [1] was under 1e-05 s⁻¹. The “self-cleavage kobs at 160 uM GlcN6P” value in data set [2] is under 1e-05 s⁻¹. The “self-cleavage kobs at 640 uM GlcN6P” value in data set [3] is under 1e-05 s⁻¹. Further, in data set [4], the “self-cleavage kobs at 2500 uM GlcN6P” value is under 1e-05 s⁻¹. The “self-cleavage kobs at 10000 uM GlcN6P” value in data set [5] is under 1e-05 s⁻¹.
On to C16A U30A A33G U55C, for which the “self-cleavage kobs at 40 uM GlcN6P” value in data set [1] is under 1e-05 s⁻¹.
A12U U54C: the “self-cleavage kobs at 40 uM GlcN6P” value in data set [1] was 0.00204 ± 0.00025 s⁻¹. Moreover, in data set [2], the “self-cleavage kobs at 160 uM GlcN6P” value was 0.00477 ± 0.00085 s⁻¹. In addition, in data set [3], the “self-cleavage kobs at 640 uM GlcN6P” value amounted to 0.0165 ± 0.0024 s⁻¹. The “self-cleavage kobs at 2500 uM GlcN6P” value in data set [4] worked out at 0.0157 ± 0.0029 s⁻¹. The “self-cleavage kobs at 10000 uM GlcN6P” value in data set [5] is 0.0931 ± 0.024 s⁻¹.
In the same order, the values of C10U A52U are under 1e-05 s⁻¹, under 1e-05 s⁻¹, under 1e-05 s⁻¹, under 1e-05 s⁻¹ and under 1e-05 s⁻¹.
As for G9A C58G U65C, the “self-cleavage kobs at 40 uM GlcN6P” value in data set [1] was under 1e-05 s⁻¹. For the same variant, in data set [3], the “self-cleavage kobs at 640 uM GlcN6P” value was under 1e-05 s⁻¹. In addition, the “self-cleavage kobs at 2500 uM GlcN6P” value in data set [4] is under 1e-05 s⁻¹.
As to A14C A53C G62C C68G, in data set [1], the “self-cleavage kobs at 40 uM GlcN6P” value was under 1e-05 s⁻¹. In data set [5], the “self-cleavage kobs at 10000 uM GlcN6P” value was under 1e-05 s⁻¹.
Turning to U30G G32A G35C A42C, in data set [1], the “self-cleavage kobs at 40 uM GlcN6P” value is under 1e-05 s⁻¹.
In the case of G7C C71G, the “self-cleavage kobs at 40 uM GlcN6P” value in data set [1] is under 1e-05 s⁻¹. For the same variant, in data set [4], the “self-cleavage kobs at 2500 uM GlcN6P” value was under 1e-05 s⁻¹. The “self-cleavage kobs at 10000 uM GlcN6P” value in data set [5] was under 1e-05 s⁻¹.
Take C58G C61U: the “self-cleavage kobs at 40 uM GlcN6P” value in data set [1] was under 1e-05 s⁻¹.
On the same count and under the same terms, to A15C A52C C70U C71G belongs under 1e-05 s⁻¹.
With G9A A42G G43U C61A, the “self-cleavage kobs at 40 uM GlcN6P” value in data set [1] is under 1e-05 s⁻¹. In data set [3], the “self-cleavage kobs at 640 uM GlcN6P” value was under 1e-05 s⁻¹.
As to C8U C11U C58A C67G, the “self-cleavage kobs at 40 uM GlcN6P” value in data set [1] came to 0.00018 ± 3.1e-05 s⁻¹. For the same variant, the “self-cleavage kobs at 640 uM GlcN6P” value in data set [3] was 0.00126 ± 0.00052 s⁻¹. For the same variant, the “self-cleavage kobs at 2500 uM GlcN6P” value in data set [4] amounted to 0.000112 ± 4.5e-05 s⁻¹. In addition, in data set [5], the “self-cleavage kobs at 10000 uM GlcN6P” value worked out at 0.000209 ± 5.4e-05 s⁻¹.
